“And” between values parts separate entries of the source, which are not always exact repeats. Identical values can stand only once.
Assays:
[1] = target: ComEAGs (ComEA from Geobacillus stearothermophilus, codons 60-207) (Geobacillus stearothermophilus (ATCC 7953)); experiment: AUC; sedimentation velocity, ComEAGs at 31.3 μM (280 nm), fitted to a discrete monomer-dimer equilibrium model (genetic algorithm Monte Carlo); dimer to monomers; apparent; 20 °C, 10 mM Tris pH 8, 100 mM KCl
[2] = target: ComEAGs (ComEA from Geobacillus stearothermophilus, codons 60-207) (Geobacillus stearothermophilus (ATCC 7953)); experiment: AUC; sedimentation velocity, ComEAGs at 157 μM, 20 °C, 10 mM Tris pH 8, 100 mM KCl, 60 krpm
[3] = target: ComEAGs-OD (oligomerization domain of ComEAGs alone, codons 60-122) (Geobacillus stearothermophilus (ATCC 7953)); experiment: AUC; sedimentation velocity, ComEAGs-OD at 12.7 μM, 37 krpm, 20 °C, 10 mM Tris pH 8, 100 mM KCl
[4] = target: the molecule itself; experiment: AUC; sedimentation velocity of 31.3 uM ComEAGs, measured at 280 nm, 60 krpm, 20 °C, 10 mM Tris pH 8, 100 mM KCl; fitted to a discrete monomer-dimer reversibly self-associating model by genetic algorithm Monte Carlo analysis (96 iterations); dimer to monomers
[5] = target: the molecule itself; experiment: AUC; sedimentation velocity of ComEAGs-OD at 196 uM, 37 krpm, 20 °C, 10 mM Tris pH 8, 100 mM KCl; molar mass distribution
[6] = target: the molecule itself; experiment: crystal structure; ComEABs crystals, 22% PEG 500, 0.1 M succinate pH 5.5, 20 °C; 3.20 Å
[7] = target: T1, ComEAGs wild-type (Geobacillus stearothermophilus (ATCC …, UniProt A0A0K9HI54 60-207)); experiment: EMSA; 0.5 uM DNA, 1 mM MgCl2; cooperative; MW-AUC: 10 mM Tris pH 8, 100 mM KCl, 20 C; EMSA: 10 mM Tris pH 8, 100 mM KCl, 2.5% glycerol, 0.5 mM EDTA, 1 mM MgCl2, room temperature 15 min, 8% native gel in; details: protein: recombinant; blunt
T1 sequence: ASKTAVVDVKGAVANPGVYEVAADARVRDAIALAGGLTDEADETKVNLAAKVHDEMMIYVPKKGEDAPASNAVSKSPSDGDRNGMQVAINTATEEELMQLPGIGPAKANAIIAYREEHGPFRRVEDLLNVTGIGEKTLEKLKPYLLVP

[8] = target: T1, ComEAGs wild-type; experiment: MW-AUC; 1.5 uM DNA, 5:1 and 10:1 protein:DNA; >90% DNA bound; ~3:1 complex, 3.9-4.0 S; MW-AUC: 10 mM Tris pH 8, 100 mM KCl, 20 C; EMSA: 10 mM Tris pH 8, 100 mM KCl, 2.5% glycerol, 0.5 mM EDTA, 1 mM MgCl2, room temperature 15 min, 8% native gel in; details: protein: recombinant; blunt
[9] = target: T1, ComEAGs wild-type; experiment: MW-AUC; 1.5 uM DNA, 10:1 protein:DNA; >90% DNA bound; ~7:1 complex, 8.1 S; MW-AUC: 10 mM Tris pH 8, 100 mM KCl, 20 C; EMSA: 10 mM Tris pH 8, 100 mM KCl, 2.5% glycerol, 0.5 mM EDTA, 1 mM MgCl2, room temperature 15 min, 8% native gel in; details: protein: recombinant; blunt

ComEAGs (ComEA from Geobacillus stearothermophilus, codons 60-207) (domain or fragment)
Kd [1]: 33.8 µM | Kd [2]: 10 to 160 µM | stoichiometry N [2]: 2

ComEAGs-OD (oligomerization domain of ComEAGs alone, codons 60-122) (domain or fragment)
stoichiometry N [3]: 2

B1: ComEA from Geobacillus stearothermophilus, residues 60-207 (domain or fragment)
chain: ASKTAVVDVKGAVANPGVYEVAADARVRDAIALAGGLTDEADETKVNLAAKVHDEMMIYVPKKGEDAPASNAVSKSPSDGDRNGMQVAINTATEEELMQLPGIGPAKANAIIAYREEHGPFRRVEDLLNVTGIGEKTLEKLKPYLLVP
notes: ComEA, Geobacillus stearothermophilus (ATCC 7953), codons 60-207 (without the N-terminal transmembrane region); also called ComEAGs; wild-type ComEAGs; source: E. coli BL21(DE3), purified (His-60 Ni resin, Source 15Q, Hitrap Heparin, Superdex200); not shown: His-Sumo, N-terminal, cleaved
koff [4]: 5.27e-05 s⁻¹

B2: ComEAGs oligomerization domain alone, residues 60-122 (domain or fragment, Geobacillus stearothermophilus)
chain: ASKTAVVDVKGAVANPGVYEVAADARVRDAIALAGGLTDEADETKVNLAAKVHDEMMIYVPKK
notes: ComEA, Geobacillus stearothermophilus (ATCC 7953), codons 60-122 (oligomerization domain); also called ComEAGs-OD; ComEA-OD; source: E. coli BL21(DE3), purified by the same protocol as wild-type ComEAGs; not shown: His-Sumo, N-terminal, cleaved
stoichiometry N [5]: 4 and > 4

B3: ComEABs (ComEA from Bacillus subtilis, codons 58-205) (domain or fragment, B. subtilis strain 168, UniProt P39694 58-205, looked up)
chain: SNETIVIDIKGAVQHPGVYEMRTGDRVSQAIEKAGGTSEQADEAQVNLAEILQDGTVVYIPKKGEETAVQQGGGGSVQSDGGKGALVNINTATLEELQGISGVGPSKAEAIIAYREENGRFQTIEDITKVSGIGEKSFEKIKSSITVK
notes: ComEA, Bacillus subtilis strain 168, codons 58-205 (lacks the N-terminal transmembrane region); source: E. coli BL21, purified (His-60 resin, Source 15Q, Superdex200); not shown: His6, C-terminal, kept
binding result [6]: binds

B4: EAGs30bp (dsDNA)
DNA 1: GCACTGTGAATATCACTACAGCAACCTTAG
DNA 2: CTAAGGTTGCTGTAGTGATATTCACAGTGC
binding result [7]: binds

B5: EAGs14bp (dsDNA)
DNA 1: GTAGGACCATCTGC
DNA 2: GCAGATGGTCCTAC
binding result [8]: binds

B6: EAGs40bp (dsDNA)
DNA 1: CGTTAGCACTGTGAATATCACTACAGCAACCTTAGAATCG
DNA 2: CGATTCTAAGGTTGCTGTAGTGATATTCACAGTGCTAACG
binding result [9]: binds

Source: publication PMC9747964 (Nature Communications, 2022)
